The results in this text go back to the supplement of paper PMC10724198.

± gives the standard deviation of the averaged measurements.
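Further: PSI is a weighted mean of sequencing reads over stability bins, variants kept only with over 10 reads, mCherry proximal and sfGFP distal, peptide attached via GGGS linker.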

The subject of this series is Saccharomyces cerevisiae. The series can be described thus: protein stability index of tFT-peptide fusion (C-terminal peptide) (PSI (0-1 scale)); higher = more stable (slower turnover). The conditions noted are these: genetic background: wild type; temperature: 30 C.
LYWAYLGASVLL yielded a protein stability index of 0.658 ± 0.013.
For MAFKLFPFGRNL, the protein stability index worked out at 0.73 ± 0.028.
Next, MAVYLKYSLLRL: 0.515 ± 0.037.
Next, MCNLSLSCEGLG: 0.665 ± 0.045.
Next, MCVFGLFCSCFD: 0.586 ± 0.082; MCWGSAEAMGFR: 0.663 ± 0.014.
Consider MEGRVARAYSDE, for which the protein stability index worked out at 0.688 ± 0.04.
Then MFCRSPSYFPTV, with 0.739 ± 0.035.
Then MFTFIQRPVAQV, with 0.6357 ± 0.0054.
Next, MGAAWNYANFGL: 0.7011 ± 0.0059; MGLVVGILVGHR: 0.647 ± 0.098; MGLYSNTRNWGS: 0.682 ± 0.034.
In turn, MKGELRHRWCPL registered a protein stability index of 0.71 ± 0.046.
Next, MKRLTCGGFNLE: 0.704 ± 0.03.
Then MKSRQKPESGPR, with 0.6899 ± 0.0056; and MLLSVDWAGDEI, with 0.796 ± 0.11.
Next, MLSFTQRYYSAI: 0.64 ± 0.03; MLSWKASWRQPV: 0.664 ± 0.021.
MPGYLIRPPVIS returned a protein stability index of 0.709 ± 0.0078.
MQEMLPSRPIRH registered a protein stability index of 0.69 ± 0.029.
Next, MQLREIIMIEKS: 0.693 ± 0.043; MQSRWAQVEGKE: 0.673 ± 0.055; MRSLLDPLSNSC: 0.7804 ± 0.0065.
MSMVVCHGGGGL came in with a protein stability index of 0.663 ± 0.017.
Next, MSRPGEGSYIGD: 0.652 ± 0.017.
Next, MSSGGSIYMVRT: 0.723 ± 0.018; MTMGSIGNFDQG: 0.611 ± 0.073.
Next, MVARFGNEFMFL: 0.695 ± 0.057; MVEFWDLPGRSC: 0.744 ± 0.081.
As to MVGLTTEFGSDG, the protein stability index came to 0.667 ± 0.015.
In the case of MVSFEWCLARSY, the protein stability index is 0.501 ± 0.054.
Then MVTRSLLLLLHG, with 0.599 ± 0.053.
Then MWRWRAHVDRFR, with 0.6831 ± 0.0058; and MYPAYNRVRFEL, with 0.657 ± 0.032; and MYRSLPRLKQTY, with 0.721 ± 0.031.
Next, NAGHTGPYADGN: 0.669 ± 0.043.
In turn, NAYRLSCGDNTN had a protein stability index of 0.683 ± 0.027.
Next, NCEVYVGLVLAD: 0.597 ± 0.028; NDGLRRLICGGT: 0.68 ± 0.022; NDKPKTTQKRTP: 0.718 ± 0.0092.
Then NDLYDVLKYLFN, with 0.712 ± 0.086.
Next, NEGGGGRGETVE: 0.613 ± 0.021.
As to NEIRNKETETVM, the protein stability index was 0.665 ± 0.023.
Next, NEPEKGQRKRRE: 0.8051 ± 0.0073; NFHVRFVPDGGR: 0.67 ± 0.021.
Then NFRHSVTTSEVN, with 0.737 ± 0.013.
Next, NGCCLVHAETGP: 0.676 ± 0.032; NGILRGATYQDV: 0.77 ± 0.067; NGLGKGKTKGEI: 0.625 ± 0.1.
Turning to NGMVDDQSEVNR, the protein stability index amounted to 0.682 ± 0.074.
As for NHRANSNPRLRY, the protein stability index worked out at 0.731 ± 0.0095.
Next, NIAPPNHASIVL: 0.695 ± 0.014; NINNKRNHIHLK: 0.648 ± 0.075.
Next, NIRSRKYMLRKS: 0.744 ± 0.085.
Turning to NKKDHTLTKKRT, the protein stability index stood at 0.661 ± 0.063.
NKKFTKQTCKPK had a protein stability index of 0.663 ± 0.0011.
Then NKKKYEIKLIME, with 0.641 ± 0.06; and NKKNKKRIGRNT, with 0.736 ± 0.034.
Next, NKNTEMNKTQWR: 0.702 ± 0.03.
Consider NKRKKKRTEPQP, for which the protein stability index was 0.661 ± 0.013.
Next, NKTKKKKKKKRG: 0.659 ± 0.061; NKTRRCTAHVGG: 0.679 ± 0.054; NKYRKNMKSSVP: 0.671 ± 0.019.
Next, NLGFTTSWSFDL: 0.766 ± 0.066; NLMTPAWTNFSS: 0.756 ± 0.077; NLRESRSLKGVI: 0.73 ± 0.016.
Next, NLRSSTSKNNKR: 0.659 ± 0.079; NLTKTLNNDIIK: 0.68183 ± 0.00011; NLVSCFSSCGSV: 0.628 ± 0.028.
For the sequence NLYLEKLLHSEP, the protein stability index came out at 0.715 ± 0.018.
Then NMGRCEGGKTAR, with 0.643 ± 0.016; and NMIIPEAVSLSL, with 0.672 ± 0.026; and NMQRKSRNQIID, with 0.707 ± 0.074.
In the case of NNYRKKKHNYKK, the protein stability index was 0.697 ± 0.011.
Next, NPGGRPKNTINP: 0.649 ± 0.11; NPPPPAHYSRPP: 0.73 ± 0.031; NPSRASAWPHVH: 0.607 ± 0.061.
Then NRGHWECIRVQR, with 0.582 ± 0.059; and NRLVQNRQVQLY, with 0.682 ± 0.014.
Then NRLVRLSQGGRE, with 0.668 ± 0.019.
NRQNNYANDIQK returned a protein stability index of 0.713 ± 0.045.
Then NRTPTPNQTPPT, with 0.6798 ± 0.0048; and NRYRKNIKKRKK, with 0.617 ± 0.028; and NSIHRTRPKKII, with 0.641 ± 0.0048.
Next, NSRMSRYTTPYG: 0.68054 ± 0.00052; NTCGYGRAIKST: 0.687 ± 0.016; NTDPAKRNHPRK: 0.71379 ± 0.00067.
In turn, NTDSIKKQKKKK showed a protein stability index of 0.675 ± 0.019.
NTTCGVEQKEDK came in with a protein stability index of 0.649 ± 0.014.
Sequence NVALPLSLLFGL registered a protein stability index of 0.633 ± 0.087.
With NVGACRVMKTVY, the protein stability index came out at 0.6876 ± 0.003.
For NVLNLTDTKETL, the protein stability index came to 0.652 ± 0.046.
Next, NYRGEKYDKREH: 0.569 ± 0.11; PAAPFFPSLRLL: 0.711 ± 0.03.
PAASPVDEKVRL: the protein stability index amounted to 0.633 ± 0.016.
Next, PAEGVVGGKCYV: 0.685 ± 0.092; PAFCLTRAPSTQ: 0.72 ± 0.071.
Then PAFPPPLPRRFL, with 0.693 ± 0.23; and PAHLFVPSSLFR, with 0.702 ± 0.042.
In turn, PALPNNVQCDCE registered a protein stability index of 0.705 ± 0.073.
With PALPPRLPPPPL, the protein stability index amounted to 0.602 ± 0.019.
For the sequence PALSVPPLLPPP, the protein stability index was 0.604 ± 0.0071.
Next, PAPAPPSHFQER: 0.717 ± 0.043; PAPAVPPQTTPM: 0.6693 ± 0.001; PAPFPAPPTHGP: 0.7165 ± 0.0061.
Then PAPHPPIPHQPP, with 0.532 ± 0.023; and PAPHPRLTPIFL, with 0.749 ± 0.11.
Next, PAPPALPFHCPR: 0.654 ± 0.075; PAPPLLPPPSPP: 0.63 ± 0.027.
PAPPPHSAPPLP displayed a protein stability index of 0.739 ± 0.024.
Next, PAPPPPPPALLP: 0.677 ± 0.067.
Then PAPPPSPPPRLA, with 0.67 ± 0.075.
Then PAPTPAPNPNPH, with 0.74 ± 0.11; and PARGPTPHIVPR, with 0.667 ± 0.053.
PARSAGPLNARS: the protein stability index was 0.758 ± 0.013.
In turn, PASGHLPPPLSP displayed a protein stability index of 0.641 ± 0.064.
